Reference: US6713294B1, “DNA glycosylases and their use” (priority 1996, dated 2004)

Assays:
Assay type in all cases: biochemical
[1] = test system: [^3H]dUMP-labelled DNA; experiment: Kinetic parameters on uracil substrate; details: for Kcat: calculated from Vmax assuming Mr=25000
Description: The final concentrations of the [^3H]cytosine-DNA (C) and [^3H]thymine-DNA (T) substrates were 6.5 μM and 10 μM, respectively. Release of radioactivity as a function of time was measured at 37° C. These conditions are later referred to as standard conditions. Substrate synthesis and processing of samples for scintillation counting were as described in Krokan and Wittwer (1981) Nucl. Acids Res., 9: 2599-2613. Single-stranded substrate was generated by boiling double-stranded substrate for 10 min, followed by rapid cooling on ice.
The kinetic parameters were determined using six different substrate concentrations to obtain the Km and Vmax values. Duplicate samples were incubated for 20 min using standard assay buffer conditions and substrates as specified. Km and Vmax were calculated using the computer program Enzpack, version 3.0 after the method of Wilkinson (1961) Biochem. J., 80: 324-332.

[2] = test system: [^3H]thymine-labelled DNA; experiment: Release of [3H]thymine from ds or ss labelled DNA; details: 10 μM, 10 min, 0 = below detection limit; for T-ds, pmol excised per min per mg protein: double-stranded thymine DNA; for T-ss, pmol excised per min per mg protein: single-stranded thymine DNA
Description: (§1) To test enzymatic substrate specificities, 250 ng purified human “wild type” UDG (UNGΔ84), UNGΔ84Tyr147Ala or UNGΔ84Asn204Asp, were mixed with 200 ng ds- or ss-[^3H]cytosine-labelled DNA (150 mCi/mmol), or ds- or ss-[^3H]thymine-labelled DNA (100 mCi/mmol) in 10 mM NaCl, 20 mM Tris-HCl (pH 7.5), 1 mM EDTA, 1 mM dithiothreitol and 0.5 mg/ml bovine serum albumin (final concentrations) in 20 μl separate reactions. The final concentrations of the [^3H]cytosine-DNA (C) and [^3H]thymine-DNA (T) substrates were 6.5 μM and 10 μM, respectively. Release of radioactivity as a function of time was measured at 37° C. These conditions are later referred to as standard conditions. Substrate synthesis and processing of samples for scintillation counting were as described in Krokan and Wittwer (1981) Nucl. Acids Res., 9: 2599-2613. Single-stranded substrate was generated by boiling double-stranded substrate for 10 min, followed by rapid cooling on ice.
(§2) For measuring release of uracil from double-stranded (U-ds) or single-stranded (U-ss) DNA the various mutant enzymes (prepared as described in Example 1 and by analogous site-directed mutagenesis methods and identical expression and purification methods) were incubated with 200 ng ds- or ss-[^3H]dUMP-labelled DNA (500 mCi/mmol, 2 μM final concentration) in 20 μl separate reactions for 10 min under standard conditions as described in Example 1. For measuring release of [^3H]cytosine or [^3H]thymine, assays were performed as described in Example 1 using an incubation time of 10 min. Uracil inhibition was analysed by adding 5 mM uracil (final concentration) to a standard U-ds assay. 0 activity indicates activity below detection limit (10 pmol per mg protein per min) with 100 ng enzyme and 200 ng DNA substrate at standard conditions.

[3] = test system: [^3H]dUMP-labelled DNA; experiment: Release of uracil from ds or ss [3H]dUMP-labelled DNA; details: 2 μM, 10 min, 37° C.; for U-ds, pmol excised per min per mg protein: double-stranded uracil DNA, 0 = below detection limit (10 pmol per mg protein per min); for U-ss, pmol excised per min per mg protein: single-stranded uracil DNA, 0 = below detection limit
Description: as §1, §2

[4] = test system: [^3H]dUMP-labelled DNA; experiment: Uracil inhibition in standard U-ds assay; details: 5 mM uracil added to standard U-ds assay
Description: as §2

[5] = test system: [^3H]cytosine-labelled DNA; experiment: Release of [3H]cytosine from ds or ss labelled DNA; details: 6.5 μM, 10 min, 0 = below detection limit; for C-ds, pmol excised per min per mg protein: double-stranded cytosine DNA; for C-ss, pmol excised per min per mg protein: single-stranded cytosine DNA
Description: as §1, §2

B1: Tyr147Phe: human UDG (UNGΔ84) mutant with Tyr147 replaced by Phe (protein)
chain: MGVFCLGPWGLGRKLRTPGKGPLQLLSRLCGDHLQAIPAKKAPAGQEEPGTPPSSPLSAEQLDRIQRNKAAALLRLAARNVPVGFGESWKKHLSGEFGKPYFIKLMGFVAEERKHYTVYPPPHQVFTWTQMCDIKDVKVVILGQDPFHGPNQAHGLCFSVQRPVPPPPSLENIYKELSTDIEDFVHPGHGDLSGWAKQGVLLLNAVLTVRAHQANSHKERGWEQFTDAVVSWLNQNSNGLVFLLWGSYAQKKGSAIDRKRHHVLQTAHPSPLSVYRGFFGCRHFSKTNELLQKSGKKPIDWKEL
Km ([1]; U-ds substrate): 0.16 µM
Kcat ([1]; U-ds substrate): 20.42 s⁻¹
Km ([1]; U-ss substrate): 0.1 µM
Kcat ([1]; U-ss substrate): 39.5 s⁻¹
T-ds, pmol excised per min per mg protein [2]: 0 pmol excised per min per mg protein
T-ss, pmol excised per min per mg protein [2]: 0 pmol excised per min per mg protein
U-ds, pmol excised per min per mg protein [3]: 3.2 × 10^7 pmol excised per min per mg protein
U-ss, pmol excised per min per mg protein [3]: 6.3 × 10^7 pmol excised per min per mg protein
Inhibition 5 mM Uracil [4]: 50%
C-ds, pmol excised per min per mg protein [5]: 0 pmol excised per min per mg protein
C-ss, pmol excised per min per mg protein [5]: 0 pmol excised per min per mg protein

B2: Asp145Asn: human UDG (UNGΔ84) mutant with Asp145 replaced by Asn (protein)
chain: MGVFCLGPWGLGRKLRTPGKGPLQLLSRLCGDHLQAIPAKKAPAGQEEPGTPPSSPLSAEQLDRIQRNKAAALLRLAARNVPVGFGESWKKHLSGEFGKPYFIKLMGFVAEERKHYTVYPPPHQVFTWTQMCDIKDVKVVILGQNPYHGPNQAHGLCFSVQRPVPPPPSLENIYKELSTDIEDFVHPGHGDLSGWAKQGVLLLNAVLTVRAHQANSHKERGWEQFTDAVVSWLNQNSNGLVFLLWGSYAQKKGSAIDRKRHHVLQTAHPSPLSVYRGFFGCRHFSKTNELLQKSGKKPIDWKEL
T-ds, pmol excised per min per mg protein [2]: 0 pmol excised per min per mg protein
T-ss, pmol excised per min per mg protein [2]: 0 pmol excised per min per mg protein
U-ds, pmol excised per min per mg protein [3]: 1.4 × 10^4 pmol excised per min per mg protein
U-ss, pmol excised per min per mg protein [3]: 1.1 × 10^4 pmol excised per min per mg protein
Inhibition 5 mM Uracil [4]: 80%
C-ds, pmol excised per min per mg protein [5]: 0 pmol excised per min per mg protein
C-ss, pmol excised per min per mg protein [5]: 0 pmol excised per min per mg protein

B3: His268Leu: human UDG (UNGΔ84) mutant with His268 replaced by Leu (protein)
chain: MGVFCLGPWGLGRKLRTPGKGPLQLLSRLCGDHLQAIPAKKAPAGQEEPGTPPSSPLSAEQLDRIQRNKAAALLRLAARNVPVGFGESWKKHLSGEFGKPYFIKLMGFVAEERKHYTVYPPPHQVFTWTQMCDIKDVKVVILGQDPYHGPNQAHGLCFSVQRPVPPPPSLENIYKELSTDIEDFVHPGHGDLSGWAKQGVLLLNAVLTVRAHQANSHKERGWEQFTDAVVSWLNQNSNGLVFLLWGSYAQKKGSAIDRKRHHVLQTALPSPLSVYRGFFGCRHFSKTNELLQKSGKKPIDWKEL
T-ds, pmol excised per min per mg protein [2]: 0 pmol excised per min per mg protein
T-ss, pmol excised per min per mg protein [2]: 0 pmol excised per min per mg protein
U-ds, pmol excised per min per mg protein [3]: 1.3 × 10^5 pmol excised per min per mg protein
U-ss, pmol excised per min per mg protein [3]: 2.6 × 10^5 pmol excised per min per mg protein
Inhibition 5 mM Uracil [4]: 75%
C-ds, pmol excised per min per mg protein [5]: 0 pmol excised per min per mg protein
C-ss, pmol excised per min per mg protein [5]: 0 pmol excised per min per mg protein

B4: Ser169Ala: human UDG (UNGΔ84) mutant with Ser169 replaced by Ala (protein)
chain: MGVFCLGPWGLGRKLRTPGKGPLQLLSRLCGDHLQAIPAKKAPAGQEEPGTPPSSPLSAEQLDRIQRNKAAALLRLAARNVPVGFGESWKKHLSGEFGKPYFIKLMGFVAEERKHYTVYPPPHQVFTWTQMCDIKDVKVVILGQDPYHGPNQAHGLCFSVQRPVPPPPALENIYKELSTDIEDFVHPGHGDLSGWAKQGVLLLNAVLTVRAHQANSHKERGWEQFTDAVVSWLNQNSNGLVFLLWGSYAQKKGSAIDRKRHHVLQTAHPSPLSVYRGFFGCRHFSKTNELLQKSGKKPIDWKEL
T-ds, pmol excised per min per mg protein [2]: 0 pmol excised per min per mg protein
T-ss, pmol excised per min per mg protein [2]: 0 pmol excised per min per mg protein
U-ds, pmol excised per min per mg protein [3]: 3.1 × 10^6 pmol excised per min per mg protein
U-ss, pmol excised per min per mg protein [3]: 5.6 × 10^6 pmol excised per min per mg protein
Inhibition 5 mM Uracil [4]: 80%
C-ds, pmol excised per min per mg protein [5]: 0 pmol excised per min per mg protein
C-ss, pmol excised per min per mg protein [5]: 0 pmol excised per min per mg protein

B5: Asp145Glu: human UDG (UNGΔ84) mutant with Asp145 replaced by Glu (protein)
chain: MGVFCLGPWGLGRKLRTPGKGPLQLLSRLCGDHLQAIPAKKAPAGQEEPGTPPSSPLSAEQLDRIQRNKAAALLRLAARNVPVGFGESWKKHLSGEFGKPYFIKLMGFVAEERKHYTVYPPPHQVFTWTQMCDIKDVKVVILGQEPYHGPNQAHGLCFSVQRPVPPPPSLENIYKELSTDIEDFVHPGHGDLSGWAKQGVLLLNAVLTVRAHQANSHKERGWEQFTDAVVSWLNQNSNGLVFLLWGSYAQKKGSAIDRKRHHVLQTAHPSPLSVYRGFFGCRHFSKTNELLQKSGKKPIDWKEL
T-ds, pmol excised per min per mg protein [2]: 0 pmol excised per min per mg protein
T-ss, pmol excised per min per mg protein [2]: 0 pmol excised per min per mg protein
U-ds, pmol excised per min per mg protein [3]: 5.5 × 10^4 pmol excised per min per mg protein
U-ss, pmol excised per min per mg protein [3]: 8.5 × 10^4 pmol excised per min per mg protein
Inhibition 5 mM Uracil [4]: 80%
C-ds, pmol excised per min per mg protein [5]: 0 pmol excised per min per mg protein
C-ss, pmol excised per min per mg protein [5]: 0 pmol excised per min per mg protein

B6: Gln144Leu: human UDG (UNGΔ84) mutant with Gln144 replaced by Leu (protein)
chain: MGVFCLGPWGLGRKLRTPGKGPLQLLSRLCGDHLQAIPAKKAPAGQEEPGTPPSSPLSAEQLDRIQRNKAAALLRLAARNVPVGFGESWKKHLSGEFGKPYFIKLMGFVAEERKHYTVYPPPHQVFTWTQMCDIKDVKVVILGLDPYHGPNQAHGLCFSVQRPVPPPPSLENIYKELSTDIEDFVHPGHGDLSGWAKQGVLLLNAVLTVRAHQANSHKERGWEQFTDAVVSWLNQNSNGLVFLLWGSYAQKKGSAIDRKRHHVLQTAHPSPLSVYRGFFGCRHFSKTNELLQKSGKKPIDWKEL
T-ds, pmol excised per min per mg protein [2]: 0 pmol excised per min per mg protein
T-ss, pmol excised per min per mg protein [2]: 0 pmol excised per min per mg protein
U-ds, pmol excised per min per mg protein [3]: 3.4 × 10^4 pmol excised per min per mg protein
U-ss, pmol excised per min per mg protein [3]: 4.8 × 10^4 pmol excised per min per mg protein
Inhibition 5 mM Uracil [4]: 25%
C-ds, pmol excised per min per mg protein [5]: 0 pmol excised per min per mg protein
C-ss, pmol excised per min per mg protein [5]: 0 pmol excised per min per mg protein
